This note sets out measurements from article PMC10542519.

One may read the stoichiometry N as the number of molecules, sites or subunits per partner or assembly.

Assay [1] addresses PhiPA3 Chimallin C (ChmC; gp61), full-length (Pseudomonas phage PhiPA3). Nature of the assay: SEC-MALS.
In assay [2] the target is PhiPA3 ChmC-ΔC (residues 204-251 removed) (Pseudomonas phage PhiPA3). As to the kind of experiment: SEC-MALS.

“PhiPA3 Chimallin C (ChmC; gp61), full-length (natural protein)” showed a stoichiometry N in assay [1] of 4.

Consider “PhiPA3 ChmC-ΔC (residues 204-251 removed) (domain or fragment)”, for which, in assay [2], the stoichiometry N stood at 4.
